Changes are numbered by the printed parent chain.
T1: monkey TIM-3 on CHOK1 stable cell line (CHOK1-cTIM-3) (monkey)
T1 chain: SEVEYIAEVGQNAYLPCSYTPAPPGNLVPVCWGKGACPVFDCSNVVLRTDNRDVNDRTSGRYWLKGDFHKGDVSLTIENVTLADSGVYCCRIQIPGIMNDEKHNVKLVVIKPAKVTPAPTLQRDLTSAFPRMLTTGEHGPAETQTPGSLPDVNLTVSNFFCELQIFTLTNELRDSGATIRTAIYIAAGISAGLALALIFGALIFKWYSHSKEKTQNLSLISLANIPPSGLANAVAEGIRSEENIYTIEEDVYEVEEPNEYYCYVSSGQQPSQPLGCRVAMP

T2: murine TIM-3 extracellular domain protein with hFc tag (mTIM-3-hFc) (mouse, UniProt Q8VIM0 29-191)
T2 construct: also called mouse TIM-3 extracellular domain protein; not shown: human IgG Fc fragment (hFc) of the pCpC vector
T2 chain: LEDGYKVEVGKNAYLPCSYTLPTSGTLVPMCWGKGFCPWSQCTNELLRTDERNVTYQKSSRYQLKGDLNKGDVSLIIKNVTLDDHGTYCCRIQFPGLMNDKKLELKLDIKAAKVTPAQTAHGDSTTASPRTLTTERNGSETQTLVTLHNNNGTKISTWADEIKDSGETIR

T3: human TIM-3 on CHOK1 stable cell line (CHOK1-hTIM-3) (human, UniProt Q8TDQ0 22-301)
T3 sequence: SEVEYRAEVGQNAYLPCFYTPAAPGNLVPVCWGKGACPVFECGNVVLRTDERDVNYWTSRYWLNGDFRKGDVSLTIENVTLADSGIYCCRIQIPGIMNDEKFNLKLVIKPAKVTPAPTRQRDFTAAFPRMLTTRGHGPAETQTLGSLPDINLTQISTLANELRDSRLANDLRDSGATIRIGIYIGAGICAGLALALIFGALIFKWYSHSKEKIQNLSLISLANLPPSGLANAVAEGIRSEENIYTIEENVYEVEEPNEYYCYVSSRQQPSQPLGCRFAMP

T4: monkey TIM-3 extracellular domain protein with hFc tag (cTIM-3-hFc) (monkey)
T4 construct: not shown: human IgG Fc fragment (hFc) of the pCpC vector
T4 chain: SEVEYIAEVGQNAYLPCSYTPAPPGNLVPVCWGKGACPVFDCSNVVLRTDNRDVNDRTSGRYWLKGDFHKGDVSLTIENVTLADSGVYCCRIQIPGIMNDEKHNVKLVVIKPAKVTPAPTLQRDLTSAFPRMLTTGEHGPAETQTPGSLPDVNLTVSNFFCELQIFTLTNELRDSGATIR

T5: TIM-3 protein on human peripheral blood mononuclear lymphocytes (PBMC) (human, UniProt Q8TDQ0 22-301)
T5 sequence: T3 sequence

B1: 7A4F10 fully human TIM-3 antibody (human IgG4, kappa) (antibody, V domains shown)
VH: EVQLLESGGGLVQPGGSLRLSCAASGFTFRTHLISWVRQAPGKGLEWVAAITGSGGSTYYADSVKGRFIISRDNSKNTLFLQMNSLRAEDTAVYYCAKDGGSGSYDDFWGQGTLVTVSS
VL: ETVLTQSPVTLSLSPGERATLSCRASQSVGSYLAWYQQKPGQAPRLLIYDASNRATGIPARFSGSGSGTDFTLTISSLEPEDFAVYYCQQRSNWPPTFGQGTKVEIK
B2: 18D2H2 fully human TIM-3 antibody (human IgG4, kappa) (antibody, V domains shown)
VH: EVQLVESGGDLVQPGGSLRLSCAASGFTFSTYWMTWVRQAPGRGLEWVANIKQDGSAKYYVDSVKGRFTLSRDDAKNSLYLQMNSLRAEDTAVYYCARGSNWFDYWGQGTLVTVSS
VL: ETVMTQSPATLSVSPGERATLSCRANQNVYSNLAWYQQKPGQAPRLLIYDASTRATGFPARFSGSGSGTEFTLTISSLQSEDFAVYYCQQYNNWPLTFGGGTKVEIK
B3: 39E5H1 fully human TIM-3 antibody (human IgG4, kappa) (antibody, V domains shown)
VH: EVQLVESGGGLVQPGGSLRLSCAASGFTFSSYWMSWVRQAPGKGLEWVANIKRGGSERYYVDSVKGRFTISGDNAKNSVYLQMNSLRAEDTAVYYCARGSNWFDPWGQGTLVTVSS
VL: B2 VL with T10I, N26S, N28S, P40L, F58I, L96I, G100Q, K103R, V104L
B4: 34B6D8 fully human TIM-3 antibody (human IgG4, kappa) (antibody, V domains shown)
VH: B3 VH with S31T, S35T, G44R, R53Q, S56G, E57D, R58K, G72T, V79L
VL: EIVMTQSPATLSMSPGERATLSCRASQSVYDNLAWYQQKPGQAPRLLIYGASTRATGIPARFSGSGSGTEFTLTISSLQSEDFALYYCQQYTHWPITFGQGTRLEIK

Biological target: T1, monkey TIM-3 on CHOK1 stable cell line …
Test: FACS, CHOK1-cTIM-3 cells, 0.013 nM antibody

Row | Binder | Mean fluorescence intensity
1 | B1 | 7.1
2 | B2 | 14.8
3 | B3 | 14.8
4 | B4 | 12.7

Biological target: T2, murine TIM-3 extracellular domain …
Test: ELISA, coated mouse TIM-3 ECD protein, 0 nM antibody

Row | Binder | OD450
5 | B1 | 0.23
6 | B2 | 0.22
7 | B3 | 0.24
8 | B4 | 0.24

Biological target: T3, human TIM-3 on CHOK1 stable cell line …
Test: FACS, CHOK1-hTIM-3 cells, 0 nM antibody

Row | Binder | Mean fluorescence intensity
9 | B1 | 2.8
10 | B2 | 2.8
11 | B3 | 2.8
12 | B4 | 2.9

Biological target: T4, monkey TIM-3 extracellular domain …
Test: ELISA, coated monkey TIM-3 ECD protein, 0.0667 nM antibody

Row | Binder | OD450
13 | B1 | 0.68
14 | B2 | 1.56
15 | B3 | 1.37
16 | B4 | 1.71

Biological target: T3, human TIM-3 on CHOK1 stable cell line …
Test: FACS, CHOK1-hTIM-3 cells, 0.013 nM antibody

Row | Binder | Mean fluorescence intensity
17 | B1 | 9.7
18 | B2 | 11.6
19 | B3 | 9.2
20 | B4 | 9.2

Biological target: T5, TIM-3 protein on human peripheral blood …
Test: cell-based or functional assay

Row | Binder | IFN-γ production (donor X); antibody 0.1 µg/ml, N = 1 [pg/mL] | IFN-γ production (donor X); antibody 0.1 µg/ml, N = 2 [pg/mL] | IFN-γ production (donor X); antibody 1 µg/ml, N = 1 [pg/mL] | IFN-γ production (donor X); antibody 1 µg/ml, N = 2 [pg/mL] | IFN-γ production (donor X); antibody 10 µg/ml, N = 1 [pg/mL] | IFN-γ production (donor X); antibody 10 µg/ml, N = 2 [pg/mL] | IFN-γ production (donor X); antibody '0' (4th head as printed), N = 1 [pg/mL] | IFN-γ production (donor X); antibody '0' (4th head as printed), N = 2 [pg/mL] | IFN-γ production (donor X); antibody '0' (5th head as printed), N = 1 [pg/mL] | IFN-γ production (donor X); antibody '0' (5th head as printed), N = 2 [pg/mL]
21 | B1 | 2930 | 2730 | 2920 | 2780 | 2900 | 2360 | 2340 | 2370 | 2290 | 2230
22 | B2 | 2660 | 2650 | 3000 | 3140 | 2810 | 3070 | 2280 | 2590 | 2340 | 2170
23 | B3 | 2700 | 2880 | 3070 | 3000 | 3150 | 3130 | 2580 | 2460 | 2190 | 2370
24 | B4 | 2770 | 2820 | 2930 | 3550 | 2980 | 3330 | 2600 | 2540 | 2280 | 2390
